Experimental data: PMC7093453
Values belong to the substance of their own block, whether it stands above or below them.

Tests used:
[1] = target: RCC: Rba. sphaeroides reaction centre with SpyCatcherΔ attached directly to the N-terminus of PufL (Rhodobacter sphaeroides) (UniProt P0C0Y9)
[2] = target: wild-type (WT) reaction centre (RC) of Rhodobacter sphaeroides (Rhodobacter sphaeroides) (UniProt P0C0Y8)
[3] = target: RCC: Rba. sphaeroides reaction centre with SpyCatcherΔ attached directly to the N-terminus of PufL (Rhodobacter sphaeroides) (UniProt P0C0Y9); remark: listed apart in the source
[4] = target: RC4C: Rba. sphaeroides reaction centre with SpyCatcherΔ attached to the N-terminus of PufL via a four residue linker (Rhodobacter sphaeroides) (UniProt P0C0Y9)

E (P870): apparent energy transfer efficiency from the rate of RC P870 photobleaching (650 nm excitation), LHCII#RC chimera in solution [1]: 22.8% | EFL: apparent energy transfer efficiency from quenching of LHC emission, LHCII#RC chimera in solution [1]: 19.6% | E (P870): apparent energy transfer efficiency from the rate of RC P870 photobleaching (650 nm excitation), mixture in solution [2]: 1.2% | EFL: apparent energy transfer efficiency from quenching of LHC emission, mixture in solution [2]: 0.8%
Substance: LHCII-T: full SpyTag sequence added to the C-terminus of the full A. thaliana Lhcb1

E (P870): apparent energy transfer efficiency from the rate of RC P870 photobleaching (650 nm excitation), RC#LHCI#RC chimera in solution [1]: 29.1% | EFL: apparent energy transfer efficiency from quenching of LHC emission, RC#LHCI#RC chimera in solution [1]: 27.4% | E (P870): apparent energy transfer efficiency from the rate of RC P870 photobleaching (650 nm excitation), mixture in solution (molar ratio of RC to LHC two) [2]: 3.3% | EFL: apparent energy transfer efficiency from quenching of LHC emission, mixture in solution [2]: 9.3% | Ea1: efficiency of energy transfer to the Lhca1-connected RC in the RC#LHCI#RC chimera, from E (P870) (Eq. 5) [3]: 13.9% | Ea1: efficiency of energy transfer to the Lhca1-connected RC in the RC#LHCI#RC chimera, from EFL (Eq. 5) [3]: 10.4%
Substance: Td-LHCI-Td: A. thaliana LHCI heterodimer of SpyTagΔ-adapted Lhca1 (Td-L1) and SpyTagΔ-adapted Lhca4 (Td-L4) (complex)

E (P870): apparent energy transfer efficiency from the rate of RC P870 photobleaching (650 nm excitation), LHCI#RC chimera in solution [1]: 20.2% | EFL: apparent energy transfer efficiency from quenching of LHC emission, LHCI#RC chimera in solution [1]: 20.7% | E (P870): apparent energy transfer efficiency from the rate of RC P870 photobleaching (650 nm excitation), mixture in solution [2]: 1.3% | EFL: apparent energy transfer efficiency from quenching of LHC emission, mixture in solution [2]: 10.3% | Ea4: apparent energy transfer efficiency for the LHCI#RC chimera, from E (P870) [3]: 20.1%
Substance: LHCI-Td: A. thaliana LHCI heterodimer of unadapted Lhca1 (L1) and SpyTagΔ-adapted Lhca4 (Td-L4) (from UniProt Q01667 36-241) (complex)

E (P870): apparent energy transfer efficiency from the rate of RC P870 photobleaching (650 nm excitation), RC#LHCII chimera in solution [4]: 21% | EFL: apparent energy transfer efficiency from quenching of LHC emission, RC#LHCII chimera in solution [4]: 20.3%
Substance: Td-dLHCII: SpyTagΔ added to the N-terminus of the truncated A. thaliana Lhcb1
